This series is described as follows: in vivo. The arrangement: species or system Balb/c nude mice. The following applies: male, Balb/c nude, mouse, iv, total radioactivity. The source says:
Healthy male Balb/c nude mice (˜18 g) from 8 weeks old were obtained from the ARC and used for this study. Mice were imported into the CAI animal holding facility and monitored for 1 week prior to the study in order to acclimatise to the environment prior to injection of cells. All animals were provided with free access to food and water before and during the imaging experiments which were approved by the University of Queensland Animal Ethics Committee (Approval #AIBN/CAI/105/19/ARC/NHMRC).
8-week-old male Balb/c nude mice were injected (27 G needle) subcutaneously with PC3 ([…]) cells in 50 μL of 50:50 matrigel and cells in phosphate buffered saline into the right flank of each mouse. There was no evidence of ulceration at the time of dosing; the animals were closely monitored and remained in good condition apart from the growth of tumours. […] Labelled peptides were injected via the tail vein (29 G needle; ˜2-3 MBq) and then mice were imaged using the Siemens Inveon PET-CT instrument at the various timepoints.
The injection syringe was filled with the radioisotope solution (approximately 150 μL) and the activity in the syringe was measured using a dose calibrator (Capintec CRC-25) with a calibration factor of 35. The activity left in the syringe after the tail vein injection was measured using the same dose calibrator and the total volume injected in each mouse was calculated.
Organs were excised at 24 hours, with the percentage of injected dose of the administered compound determined by ex vivo gamma counting (Table 2). Values are averages across 4 mice.

[1] abbreviates: Percentage of injected dose in Blood.
The mark [2] stands for this setting: Percentage of injected dose in GI Tract.
The mark [3] stands for this setting: Percentage of injected dose in Heart.
The mark [4] stands for this setting: Percentage of injected dose in Kidneys.
[5] abbreviates: Percentage of injected dose in Liver.
Where [6] appears, read: Percentage of injected dose in Lungs.
Where [7] appears, read: Percentage of injected dose in Pancreas.
[8] abbreviates: Percentage of injected dose in Spleen.
[9] abbreviates: Percentage of injected dose in Tail.
Setting [10] is: Percentage of injected dose in Tumour.

SMILES strings stand for the structures.

As usually defined, the tissue uptake is the percentage of the injected dose found per gram of tissue. Turning to `CC(C)C[C@H](NC(=O)C[C@H](O)[C@H](CC(C)C)NC(=O)[C@H](Cc1c[nH]cn1)NC(=O)CNC(=O)[C@@H](NC(=O)[C@H](C)NC(=O)[C@H](Cc1c[nH]c2ccccc12)NC(=O)[C@H](CCC(N)=O)NC(=O)[C@@H](Cc1ccccc1)NC(=O)CCOCCOCCOCCOCCNC(=O)CCCC(=O)NC12CNCCNCC(NC(=O)CCCC(=O)NC(CCCCNC(=O)CCCc3ccc(I)cc3)C(=O)O)(CNCCNC1)CNCCNC2)C(C)C)C(N)=O` (stereo partly drawn) [Sar(ABG)(BBN)], the tissue uptake at 24 h came out at 7.22 ± 0.79 %ID/g under setting [1]; 1.93 ± 0.46 %ID/g under setting [2]; 3.1 ± 0.53 %ID/g under setting [3]; 4.29 ± 0.54 %ID/g under setting [4]; 2.96 ± 0.3 %ID/g under setting [5]; 4.85 ± 0.93 %ID/g under setting [6]. Further, the tissue uptake at 24 h is, setting by setting: under setting [7], 6 ± 1.17 %ID/g; under setting [8], 2.68 ± 0.33 %ID/g; under setting [9], 2.06 ± 0.3 %ID/g; under setting [10], 22.3 ± 11 %ID/g.
For `CC(C)CC(NC(=O)CC(O)C(CC(C)C)NC(=O)C(Cc1c[nH]cn1)NC(=O)CNC(=O)C(NC(=O)C(C)NC(=O)C(Cc1c[nH]c2ccccc12)NC(=O)C(CCC(N)=O)NC(=O)C(Cc1ccccc1)NC(=O)CCOCCOCCOCCOCCNC(=O)CCCC(=O)NC12CNCCNCC(NC(=O)CCCC(=O)NCCOCCOCCOCCOCCC(=O)NC(Cc3ccccc3)C(=O)NC(CCC(N)=O)C(=O)NC(Cc3c[nH]c4ccccc34)C(=O)NC(C)C(=O)NC(C(=O)NCC(=O)NC(Cc3c[nH]cn3)C(=O)NC(CC(C)C)C(O)CC(=O)NC(CC(C)C)C(N)=O)C(C)C)(CNCCNC1)CNCCNC2)C(C)C)C(N)=O` (stereo not drawn) [Sar(BBN)2], the tissue uptake at 24 h by setting is: under setting [1], 0.1 ± 0.05 %ID/g; under setting [2], 0.44 ± 0.04 %ID/g; under setting [3], 0.21 ± 0.03 %ID/g; under setting [4], 6.81 ± 0.67 %ID/g; under setting [5], 16.8 ± 1.55 %ID/g; under setting [6], 0.36 ± 0.12 %ID/g. For the same compound, the tissue uptake at 24 h by setting is: under setting [7], 0.84 ± 0.06 %ID/g; under setting [8], 1.47 ± 0.2 %ID/g; under setting [9], 0.28 ± 0.05 %ID/g; under setting [10], 2.13 ± 0.86 %ID/g.
As for `CC(C)C[C@H](NC(=O)C[C@H](O)[C@H](CC(C)C)NC(=O)[C@H](Cc1c[nH]cn1)NC(=O)CNC(=O)[C@@H](NC(=O)[C@H](C)NC(=O)[C@H](Cc1c[nH]c2ccccc12)NC(=O)[C@H](CCC(N)=O)NC(=O)[C@@H](Cc1ccccc1)NC(=O)CCOCCOCCOCCOCCNC(=O)CCCC(=O)NC12CNCCNCC(N)(CNCCNC1)CNCCNC2)C(C)C)C(N)=O` [Sar(BBN)], the tissue uptake at 24 h reads like this: under setting [1], 0.13 ± 0.04 %ID/g; under setting [2], 0.3 ± 0.07 %ID/g; under setting [3], 0.24 ± 0.02 %ID/g; under setting [4], 3.55 ± 0.79 %ID/g; under setting [5], 1.52 ± 0.18 %ID/g; under setting [6], 0.31 ± 0.08 %ID/g. Also, the tissue uptake at 24 h by setting is: under setting [7], 0.23 ± 0.02 %ID/g; under setting [8], 0.38 ± 0.06 %ID/g; under setting [9], 0.56 ± 0.87 %ID/g; under setting [10], 4.09 ± 0.52 %ID/g.

These data come from US20240050600A1, “Radiopharmaceuticals, uses thereof, and methods for the production thereof” (priority 2020, published 2024).
